According to publication PMC6465384:
pKd: −log10 of the molar value.

Target: SpyDock (SpyCatcher2.1 S49C E77A), carbamidomethylated
Assay: ITC; 20 μM carbamidomethylated SpyDock in the cell, 20 injections of 210 μM SpyTag-MBP or SpyTag002-MBP from the syringe; 25 °C; 20 mM HEPES pH 7.0, 150 mM NaCl; 1:1 binding model

SpyTag002-MBP showed a pKd of 7.14 and a stoichiometry N of 1.

In the case of SpyTag-MBP, the pKd was 6.12 and the stoichiometry N was 1.
